Assay results from patent US20230279077A1.

What was measured:
[1] = molecular target: HSV-1 glycoprotein D-Fc fusion protein (HSV-1) (UniProt Q69091); assay: phage ELISA, glycoprotein D coated, anti-M13 HRP; well D2
[2] = molecular target: HSV-1 glycoprotein D-Fc fusion protein (HSV-1) (UniProt Q69091); assay: phage ELISA, glycoprotein D coated, anti-M13 HRP; well F1
[3] = molecular target: HSV-1 glycoprotein D-Fc fusion protein (HSV-1) (UniProt Q69091); assay: phage ELISA, glycoprotein D coated, anti-M13 HRP; well H8
[4] = molecular target: HSV-1 glycoprotein D-Fc fusion protein (HSV-1) (UniProt Q69091); assay: phage ELISA, glycoprotein D coated, anti-M13 HRP; well D1
[5] = molecular target: HSV-1 glycoprotein D-Fc fusion protein (HSV-1) (UniProt Q69091); assay: phage ELISA, glycoprotein D coated, anti-M13 HRP; well G11
[6] = molecular target: HSV-1 glycoprotein D-Fc fusion protein (HSV-1) (UniProt Q69091); assay: SPR Biacore T200, single cycle kinetics, G-Fc captured on anti-human IgG, 1:1 fit
[7] = molecular target: HSV-1 glycoprotein D-Fc fusion protein (HSV-1) (UniProt Q69091); assay: phage ELISA, glycoprotein D coated, anti-M13 HRP; well A6
[8] = molecular target: HSV-1 glycoprotein D-Fc fusion protein (HSV-1) (UniProt Q69091); assay: SPR Biacore T200, single cycle kinetics, G-Fc captured on anti-human IgG, 1:1 fit, second run
[9] = molecular target: HSV-1 glycoprotein D-Fc fusion protein (HSV-1) (UniProt Q69091); assay: phage ELISA, glycoprotein D coated, anti-M13 HRP; well C3
[10] = molecular target: HSV-1 glycoprotein D-Fc fusion protein (HSV-1) (UniProt Q69091); assay: SPR single-cycle kinetics, G-Fc captured on anti-human IgG, 25 C, 1:1 Binding fit; item G19, curve Fc=2-1; Table 6 calls the fit to the 1:1 model poor
[11] = molecular target: HSV-1 glycoprotein D-Fc fusion protein (HSV-1) (UniProt Q69091); assay: SPR single-cycle kinetics, G-Fc captured on anti-human IgG, 25 C, 1:1 Binding fit; item G19 2, curve Fc=3-1; Table 6 calls the fit to the 1:1 model poor
[12] = molecular target: HSV-1 glycoprotein D-Fc fusion protein (HSV-1) (UniProt Q69091); assay: phage ELISA, glycoprotein D coated, anti-M13 HRP; well C5
[13] = molecular target: HSV-1 glycoprotein D-Fc fusion protein (HSV-1) (UniProt Q69091); assay: phage ELISA, glycoprotein D coated, anti-M13 HRP; well B4
[14] = molecular target: HSV-1 glycoprotein D-Fc fusion protein (HSV-1) (UniProt Q69091); assay: SPR, G-Fc captured on anti-human IgG; high end tied to G77 by Table 6
[15] = molecular target: HSV-1 glycoprotein D-Fc fusion protein (HSV-1) (UniProt Q69091); assay: phage ELISA, glycoprotein D coated, anti-M13 HRP; well E10
[16] = molecular target: HSV-1 glycoprotein D-Fc fusion protein (HSV-1) (UniProt Q69091); assay: phage ELISA, glycoprotein D coated, anti-M13 HRP; well D6
[17] = molecular target: HSV-1 glycoprotein D-Fc fusion protein (HSV-1) (UniProt Q69091); assay: SPR, G-Fc captured on anti-human IgG; low end tied to G44 by Table 6
[18] = molecular target: HSV-1 glycoprotein D-Fc fusion protein (HSV-1) (UniProt Q69091); assay: phage ELISA, glycoprotein D coated, anti-M13 HRP; well H3
[19] = molecular target: HSV-1 glycoprotein D-Fc fusion protein (HSV-1) (UniProt Q69091); assay: phage ELISA, glycoprotein D coated, anti-M13 HRP; well C6
[20] = molecular target: HSV-1 glycoprotein D-Fc fusion protein (HSV-1) (UniProt Q69091); assay: phage ELISA, glycoprotein D coated, anti-M13 HRP; well B2
[21] = molecular target: HSV-1 glycoprotein D-Fc fusion protein (HSV-1) (UniProt Q69091); assay: phage ELISA, glycoprotein D coated, anti-M13 HRP; well D3
[22] = molecular target: HSV-1 glycoprotein D-Fc fusion protein (HSV-1) (UniProt Q69091); assay: phage ELISA, glycoprotein D coated, anti-M13 HRP; well F3
[23] = molecular target: HSV-1 glycoprotein D-Fc fusion protein (HSV-1) (UniProt Q69091); assay: phage ELISA, glycoprotein D coated, anti-M13 HRP; well D5
[24] = molecular target: HSV-1 glycoprotein D-Fc fusion protein (HSV-1) (UniProt Q69091); assay: phage ELISA, glycoprotein D coated, anti-M13 HRP; well C8
[25] = molecular target: HSV-1 glycoprotein D-Fc fusion protein (HSV-1) (UniProt Q69091); assay: phage ELISA, glycoprotein D coated, anti-M13 HRP; well H1
[26] = molecular target: HSV-1 glycoprotein D-Fc fusion protein (HSV-1) (UniProt Q69091); assay: phage ELISA, glycoprotein D coated, anti-M13 HRP; well H5

B1: 3G-12 (VHH)
VHH: DVQLVESGGGLVQPGGSLRLSCAASGFSFSFKNYAMTWVRQAPGKGLEWVSTMSGGGDETKYADSVKGRFTISRDNTKNTLYLQMNSLKPEDTAVYYCAKGWITTDRFTNTPRGQGTQVTVSS
B1 was tested. Which A450 nm [1] did it give?
The A450 nm was 1.01.

B2: 3G-6 (VHH)
VHH: QVQLVESGGGLVQPGGSLRLSCTASGFSFSFKNYAMSWVRQAPGKGLEWVSTMSGGGGDTKYADSVKGRFTISRDNAKNTLYLQMNSLKPEDTAVYYCAKGWITTDRFTDTPRGQGTQVTVSS
For B2, which A450 nm [2] is on record?
The A450 nm was 0.951.

B3: 3G-64 (VHH)
VHH: QVQLVESGGGLVQPGGSLRLSCAASGFSFSFKNYAMSWVRQAPGKGLEWVSTMSGSGGDTKYADSVKGRFTISRDNAKNTLYLQMNSLKPEDTAVYYCAKGWITTDRFTDAPRGQGTQVTVSS
For B3, which A450 nm [3] is on record?
The A450 nm was 0.985.

B4: 3G-4 (VHH)
VHH: QVKLEESGGGLVQPGGSLRLSCAASGFSFSFKNYAMSWVRQAPGKGLEWVSTMSGGGDETKYADSVKGRFTISRDNTKNTLYLQMNSLKPEDTAVYYCAKGWITTDRFTNTPRGQGTQVTVSS
B4 was tested. Which A450 nm [4] did it give?
The A450 nm was 1.09.

B5: 3G-87 (VHH)
VHH: DVQLVESGGGLVQPGGSLRLSCAASGFSFSFENYAMSWVRQAPGKGLEWVSTMSGGGGDTKYADSVKGRFTISRDNAKNMLYLQMNSLKPEDTAVYYCAKGWITTDRFTNTLRGQGTQVTVSS
B5 was tested. Which A450 nm [5] did it give?
The A450 nm was 1.13.

B6: 3-G-41_M13R (VHH, not shown: small tags and cut ends)
VHH: QVQLVESGGGLVQPGGSLRLSCAASGFSFSFKNYAMSWVRQAPGKGLEWVSTMSGGGGDIKYADSVKGRFTISRDNAKNTLYLQMNSLKPEDTAVYYCAKGWITTDQFTNTPRGQGTQVTVSS
Which results are given for B6?
Kd [6]: 0.096 nM; koff [6]: 0.000274 s⁻¹; kon [6]: 2.85e+06 M⁻¹ s⁻¹; A450 nm [7]: 0.805; Kd [8]: 0.092 nM; koff [8]: 0.000279 s⁻¹; kon [8]: 3.05e+06 M⁻¹ s⁻¹

B7: 3-G-19_M13R (VHH, not shown: small tags and cut ends)
VHH: QVKLEESGGGLVQPGGSLRLSCTASGFSFAFKDYAMSWVRQAPGKGLEWVSTMSGGGGDTKYADSVKGRFTISRDNNKNTVYLQMNSLKPEDTAVYYCAKGWITTNQFADAPRGQGTQVTVSS
For B7, which A450 nm [9] is on record?
Its A450 nm is 1.07.

And the Kd [10]?
Its Kd is 1.73 nM.

What about the koff [10] of the same binder?
The koff was 0.000368 s⁻¹.

What about the kon [10] of the same binder?
Its kon is 213000 M⁻¹ s⁻¹.

What about the Kd [11] of the same binder?
Its Kd is 1.71 nM.

And the koff [11]?
The koff was 0.000368 s⁻¹.

What about the kon [11] of the same binder?
Its kon is 216000 M⁻¹ s⁻¹.

B8: 3G-35 (VHH)
VHH: DVQLVDSGGGLVQPGGSLRLSCSASGFSSAFKNYAMSWVRQAPGKGLEWVSTMSGGGGDTKYADSVKGRFTISRDNNKNTVYLQMNSLKPEDTAVYYCAKGWITNNQFASAPRGQGTQVTVSS
With B8 as the binder, how does the A450 nm [12] read?
The A450 nm was 1.13.

B9: 3G-26 (VHH)
VHH: QVQLVESGGGLVQPGGSLRLSCTASGFSFAFKNYAMSWVRQAPGKGLEWVSTMSGGGGDTKYADSVKGRFTISRDNAKNTVYLQMNSLKPEDTAVYYCAEGWITTDQFASAPRGQGTQVTVSS
With B9 as the binder, how does the A450 nm [13] read?
The A450 nm was 0.892.

B10: 3-G-77_M13R (VHH, not shown: small tags and cut ends)
VHH: QVQLVESGGGLVQPGGSLRLSCSASGFSFAFKNYAMSWVRQAPGKGLEWVSTMSGGGGDTKYADSVKGRFTISRDNNKNTVYLQMNSLKPEDTAVYYCAKGWITNNQFAFAPRGQGTQVTVSS
Which Kd [14] does the source give for B10 here?
Its Kd is 0.2 nM.

What about the Kd [6] of the same binder?
Its Kd is 0.183 nM.

And the koff [6]?
Its koff is 0.00093 s⁻¹.

And the kon [6]?
The kon was 5.07e+06 M⁻¹ s⁻¹.

What about the A450 nm [15] of the same binder?
The A450 nm was 1.25.

And the Kd [8]?
Its Kd is 0.18 nM.

What about the koff [8] of the same binder?
Its koff is 0.00102 s⁻¹.

What about the kon [8] of the same binder?
The kon was 5.67e+06 M⁻¹ s⁻¹.

B11: 3-G-44_M13R (VHH, not shown: small tags and cut ends)
VHH: QVQLVESGGGLVQPGGSLRLSCTASGFSFAFKNYAMSWVRQAPGKGLEWVSTMSGGGGDTKYADSVKGRFTISRDNAKNAVYLQMNSLKPEDTAVYYCAKGWITTDQFATAPRGQGTQVTVSS
With B11 as the binder, how does the A450 nm [16] read?
Its A450 nm is 1.05.

What about the Kd [17] of the same binder?
The Kd was 0.05 nM.

And the Kd [6]?
Its Kd is 0.051 nM.

And the koff [6]?
Its koff is 0.000281 s⁻¹.

And the kon [6]?
The kon was 5.47e+06 M⁻¹ s⁻¹.

What about the Kd [8] of the same binder?
The Kd was 0.048 nM.

What about the koff [8] of the same binder?
The koff was 0.000299 s⁻¹.

And the kon [8]?
The kon was 6.2e+06 M⁻¹ s⁻¹.

B12: 3G-24 (VHH)
VHH: QVKLEESGGGLAQPGGSLRLSCTASGFSFAFKNYAMSWVRQAPGKGLEWVSTMSGGGGDTKYADSVKGRFTISRDNAKNTVYLQMNSLKPEDTAVYYCAKGWITTDQFASAPRGHGTQVTVSS
With B12 as the binder, how does the A450 nm [18] read?
Its A450 nm is 1.09.

B13: 3G-43 (VHH)
VHH: AVQLVESGGGLVQPGGSLRLSCSASGFSFAFKNYAMSWVRQAPGKGLEWVSTMSGGGGDTKYADSVKGRFTISRDNNKNTVYLQMNSLKPEDTAVYYCAEGWITNNQFASAPRGQGTQVTVSS
B13 was tested. Which A450 nm [19] did it give?
The A450 nm was 1.19.

B14: 3G-10 (VHH)
VHH: QVQLVESGGGLVQPGGSLKLSCASSESIFAFKNYAMSWVRQAPGKGLEWVSTMSGGGGDTKYADSVKGRFTISRDNAKNTVYLQMNSLKPEDTAVYYCAKGWITTDQFASAPRGHGTQVTVSS
How did the A450 nm [20] turn out when B14 was run?
Its A450 nm is 1.14.

B15: 3G-20 (VHH)
VHH: EVQLVESGGGLVQPGGSLTLSCAASGFSFSFENYAMSWVRQAPGKGLEWVSTMSGGGGDIKYADSVKGRFTISRDNAKNTLYLQMNNLKPEDSAVYYCAKGWITTNRLTNTPRGQGTQVTVSS
Which A450 nm [21] does the source give for B15 here?
The A450 nm was 1.18.

B16: 3G-22 (VHH)
VHH: QVQLVESGGGLVQPGGSLTLSCAASGFSFSFENYAMSWVRQAPGKGLEWVSTMSGGGGDIKYADSVKGRFTISRDNAKNTLYLQMNNLKPEDSAVYYCAKGWITTNRFTNIPRGQGTQVTVSS
With B16 as the binder, how does the A450 nm [22] read?
The A450 nm was 1.14.

B17: 3G-36 (VHH)
VHH: QVQLVESGGGLVQPGGSLTLSCAASGFSFSFENYAMSWVRQAPGKGLEWVSTMSGGGGDIKYADSVKGRFTISRDNAKNTLYLQMNNLKPEDSAVYYCAKGWITTNQFTNTPRGQGTQVTVSS
For B17, which A450 nm [23] is on record?
Its A450 nm is 0.934.

B18: 3G-59 (VHH)
VHH: QVQLVESGGGLVQPGGSLTLSCAASGFSFSFENYAMSWVRQAPGKGLEWVSTMSGGGGDIKYADSVKGRFTISRDNAKNTLYLQMNNLKPEDSAVYYCAKGWITANRFTNTPRGQGTQVTVSS
B18 was tested. Which A450 nm [24] did it give?
The A450 nm was 1.16.

B19: 3G-8 (VHH)
VHH: HVQLVESGGGLVQPGGSLTLSCAASGFSFSFENYAMSWVRQAPGKGLEWVSTMSGGGGDIKYADSVKGRFTISRDNAKNTLYLQMNNLKPEDSAVYYCAKGWITTNRFTNTPRGQGTQVTVSS
Which A450 nm [25] does the source give for B19 here?
The A450 nm was 0.933.

B20: 3G-40 (VHH)
VHH: QVKLEESGGGLAQPGGSLRLSCAASGFSFSFKNYAMSWVRQAPGKGLEWVSTMSGGGGDIKYADSVKGRFTISRDNAKNTLYLQMNSLKPEDTAVYYCAKGWIATDQFTNTPRGQGTQVTVSS
B20 was tested. Which A450 nm [26] did it give?
Its A450 nm is 1.09.
